Results on six molecules are retold here after patent US20200157519A1 (IMMUNWORK, published 2020).

Where a chain is given by its changes, count along the chain named.

The labels stand for the following.
B1: recombinant anti-fibrin 102-10 antibody (full-length) (antibody, human IgG1, kappa, V domains shown)
VH: QIQLVQSGPELKKPGETVKISCKASGYTFTNYGMNWVKQAPGKGLKWMGWINTYTGEATYADDFKGRFAFSLETSANTAYVQINNLKNEDTATYFCARLMDYWGQGTSVTVSS
VL: DIQMTQSPSSLSASLGGKVTITCKASQDINKYIAWFQHKPGKGPRLLIHYTSTLQPGIPSRFSGSGSGRDYSFSISNLEPEDLATYYCLQYDNLTWTFGGGTKLEIKR
B2: recombinant anti-fibrin 3D5 antibody (full-length) (antibody, human IgG1, kappa, V domains shown)
VH: EVQLVESGGGLVQPGGSLRLSCAASGFTISDFGIHWVRQAPGKGLEWVASIWPSGGYTYYADSVKGRFTISADTSKNTAYLQMNSLRAEDTAVYYCARSWFYSWYDYWGQGTLVTVSS
VL: DIQMTQSPSSLSASVGDRVTITCRASQDVSNNVAWYQQKPGKAPKLLIFWSPWLYSGVPSRFSGSGSGTDFTLTISSLQPEDFATYYCQQGWDSPVTFGQGTKVEIKR
notes: Expressed from the pG1K vector in Expi293F cells, purified on Protein A
B3: phage-displayed 3D5 scFv (scFv)
scFv: DIQMTQSPSSLSASVGDRVTITCRASQDVSNNVAWYQQKPGKAPKLLIFWSPWLYSGVPSRFSGSGSGTDFTLTISSLQPEDFATYYCQQGWDSPVTFGQGTKVEIKRGGGGSGGGGSGGGGSEVQLVESGGGLVQPGGSLRLSCAASGFTISDFGIHWVRQAPGKGLEWVASIWPSGGYTYYADSVKGRFTISADTSKNTAYLQMNSLRAEDTAVYYCARSWFYSWYDYWGQGTLVTVSS
notes: Tested as secreted scFv in culture supernatant, detected through its E-tag
B4: scFv clone 3C2 (scFv, V domains shown)
VH: EVQLVESGGGLVQPGGSLRLSCAASGFTIGNSSIHWVRQAPGKGLEWVAGIWPYWGSTYYADSVKGRFTISADTSKNTAYLQMNSLRAEDTAVYYCARFGINNDGFMDYWGQGTLVTVSS
VL: DIQMTQSPSSLSASVGDRVTITCRASQDVSGWVAWYQQKPGKAPKLLISSTGSLYSGVPSRFSGSGSGTDFTLTISSLQPEDFATYYCQQYYDFPITFGQGTKVEIKR
notes: Tested as a secreted scFv with E-tag from the phage library
B5: scFv clone 7A3 (scFv, V domains shown)
VH: EVQLVESGGGLVQPGGSLRLSCAASGFTINDWSIHWVRQAPGKGLEWVAYIGPFWGSTFYADSVKGRFTISADTSKNTAYLQMNSLRAEDTAVYYCARGYFGFDYWGQGTLVTVSS
VL: B4 VL with S30G, T51P, G52R, Y92F, D93S, F94S, I96F
notes: as for B4
B6: scFv clone 8F2 (scFv, V domains shown)
VH: EVQLVESGGGLVQPGGSLRLSCAASGFTINNYGIHWVRQAPGKGLEWVAGIWPYWGYTYYADSVKGRFTISADTSKNTAYLQMNSLRAEDTAVYYCARFDSNSYSSYSDGFMDYWGQGTLVTVSS
VL: B4 VL with S30D, G31N, W32S, T51A, G52R, D93N, F94Y
notes: as for B4

The target in one assay is T1, crosslinked human fibrin treated by human factor XIIIa (human, UniProt P02671 36-629; P02675 45-491; P02679 27-437, crosslinked by factor XIIIa).
T1 construct: Coated human fibrinogen treated with thrombin and 0.55 ug factor XIIIa (Zedira) per well; also called crosslinked fibrin
T1 sequence (looked up) 1: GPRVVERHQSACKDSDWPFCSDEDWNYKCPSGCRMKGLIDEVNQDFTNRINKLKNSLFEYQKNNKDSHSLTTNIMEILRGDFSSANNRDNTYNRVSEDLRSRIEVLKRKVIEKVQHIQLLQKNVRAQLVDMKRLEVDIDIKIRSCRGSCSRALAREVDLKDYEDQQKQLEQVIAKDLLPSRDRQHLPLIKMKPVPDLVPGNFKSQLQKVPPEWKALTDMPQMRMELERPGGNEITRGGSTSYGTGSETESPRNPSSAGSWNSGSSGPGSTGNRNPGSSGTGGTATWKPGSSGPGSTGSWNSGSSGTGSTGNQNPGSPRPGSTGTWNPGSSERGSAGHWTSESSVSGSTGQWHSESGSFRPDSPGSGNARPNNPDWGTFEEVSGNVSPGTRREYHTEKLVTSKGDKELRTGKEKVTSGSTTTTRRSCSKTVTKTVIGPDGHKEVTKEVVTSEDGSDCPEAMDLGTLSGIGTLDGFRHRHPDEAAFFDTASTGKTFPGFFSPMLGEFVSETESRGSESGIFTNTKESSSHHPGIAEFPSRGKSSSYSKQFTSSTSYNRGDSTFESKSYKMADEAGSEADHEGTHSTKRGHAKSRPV
T1 sequence (looked up) 2: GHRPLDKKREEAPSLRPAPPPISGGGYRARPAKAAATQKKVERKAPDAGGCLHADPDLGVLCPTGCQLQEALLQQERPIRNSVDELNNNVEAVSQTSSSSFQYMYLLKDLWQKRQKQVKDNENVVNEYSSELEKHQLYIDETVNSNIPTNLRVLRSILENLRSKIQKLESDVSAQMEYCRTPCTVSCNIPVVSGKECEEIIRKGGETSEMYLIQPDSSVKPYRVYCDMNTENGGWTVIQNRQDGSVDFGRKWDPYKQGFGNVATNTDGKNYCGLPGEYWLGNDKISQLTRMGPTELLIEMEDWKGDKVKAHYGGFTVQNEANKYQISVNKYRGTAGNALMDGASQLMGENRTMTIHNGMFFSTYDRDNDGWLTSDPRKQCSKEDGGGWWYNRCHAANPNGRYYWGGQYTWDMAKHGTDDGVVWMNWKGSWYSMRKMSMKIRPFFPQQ
T1 sequence (looked up) 3: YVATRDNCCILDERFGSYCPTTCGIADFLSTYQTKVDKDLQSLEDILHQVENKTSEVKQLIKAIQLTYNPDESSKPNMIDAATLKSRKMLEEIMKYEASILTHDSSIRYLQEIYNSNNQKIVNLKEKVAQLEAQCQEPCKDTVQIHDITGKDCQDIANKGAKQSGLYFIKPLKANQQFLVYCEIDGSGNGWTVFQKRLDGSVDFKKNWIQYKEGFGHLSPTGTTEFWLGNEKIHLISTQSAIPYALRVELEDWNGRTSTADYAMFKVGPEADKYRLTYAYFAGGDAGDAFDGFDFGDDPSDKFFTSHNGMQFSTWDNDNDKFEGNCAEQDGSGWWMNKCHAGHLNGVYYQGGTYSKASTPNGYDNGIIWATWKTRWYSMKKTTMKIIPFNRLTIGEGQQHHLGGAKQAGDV
As to the kind of experiment: ELISA on crosslinked fibrin plate, HRP-protein L.
For B1, the binding result was “binds”.
In the case of B2, the binding result is given as “binds”.

The next assay has as its target T2, human fibrin (human fibrinogen coated on the plate and treated with thrombin) (human, UniProt P02671 36-629; P02675 45-491; P02679 27-437).
T2 construct: Made on the plate: coated human fibrinogen (Sigma) treated with 1.0 U/mL thrombin, CaCl2 and L-cysteine
T2 sequence (looked up) 1: T1 sequence (looked up) 1
T2 sequence (looked up) 2: T1 sequence (looked up) 2
T2 sequence (looked up) 3: T1 sequence (looked up) 3
In words: single colony ELISA, secreted scFv on coated fibrin, anti-E-tag-HRP. As to the method:
(§1) E. coli strain ER2738 infected with single-clonal phages each harboring a selected scFv gene in its phagemid was grown in the mid-log phase in 2YT broth (16 g/L tryptone, 10 g/l yeast extract, 5 g/l NaCl, pH 7.0) with 100 μg/ml ampicillin in deep well at 37° C. with shaking. After broth reaching an OD₆₀₀ of 1.0, IPTG was added to a final concentration of 1 μg/ml. The plates were incubated at 37° C. overnight with rigorously shaking. Thereafter, the plates were centrifuged at 4,000 g for 15 minutes at 4° C.
(§2) For soluble scFv binding test, ELISA was carried out. In brief, 96-well Maxisorp 96-well plate (Nunc) was coated with fibrin (0.5 μg/100 μL PBS per well) or a negative control antigen, human fibrinogen, for 18 hours with shaking at 4° C. After treated with 300 μL of blocking buffer for one hour, 100 μL of secreted scFv in the supernatant was mixed with 100 μL of blocking buffer and then added to the coated plate for another one hour. Goat anti-E-tag antibody (conjugated with HRP, 1:4000, Cat. No. AB19400, Abcam) was added to the plate for one hour. TMB substrate (50 μL per well) was added to each well and the absorbance at 450 nm was measured after reactions were stopped by adding 1 N HCl (50 μL per well). The OD₄₅₀ for each well was measured to determine the binding affinity of each scFv clone to fibrin or fibrinogen. For each scFv clone, the OD₄₅₀ value with respect to fibrin was divided by with the OD₄₅₀ value with respect to fibrinogen to obtain an OD₄₅₀ ratio representing the selective binding of said scFv to fibrin over fibrinogen. In the single colony ELISA analysis, a total of 192 phage clones after the 3rd panning round was subjected to the present analysis. Among them, 12 scFv clones that bound to fibrin with an OD₄₅₀ ratio greater than 10 were further characterized by sequencing their scFv-coding gene. Six different DNA sequences were identified. […] The amino acid sequence of an scFv clone D10, which binds to human fibrin with an OD₄₅₀ of 1.3, is shown in SEQ ID NO: 4.
For orientation: An ELISA detects its analyte on a solid surface through an enzyme-linked reagent.
Molecule B3 showed an OD450_Fibrin of 0.829 OD450.
On to B4, for which the OD450_Fibrin was found to be 0.759 OD450.
Molecule B5 returned an OD450_Fibrin of 0.428 OD450.
As for B6, the OD450_Fibrin is 0.527 OD450.

A further assay addresses T2, human fibrin (human fibrinogen coated …). As to the kind of experiment: ELISA on fibrin-coated plate, HRP-protein L. How it is done: Each fibrin plate was prepared as follows. 100 μL of TBS containing a final concentration of 1.0 U/mL thrombin (Sigma), 2 mM CaCl, and 7 mM L-cysteine (Merck) was added to the wells of the fibrinogen plate, which was then washed with TBS and blocked with the buffer (5% non-fat dry milk/PBS). After the blocking, 100 μL of antibodies were added to each well, and the plate was incubated at room temperature for 1 hour. The plate was then washed three times, the HRP-conjugated protein L diluted to 1/5000 was added to the wells and incubated for 1 hour at room temperature. The wells were washed three times and added with 100 μL of TMB substrate buffer. 5 minutes later, the color development was stopped with 1 M HCl. The optical density (OD) was measured at 450 nm using a microplate reader.
For the molecule B1, the binding result was “binds”.
On to B2, for which the binding result is given as “binds”.

A further assay shares this target. In words: single colony ELISA, OD450 on fibrin divided by OD450 on fibrinogen. As to the method: as §1, §2
With B3, the “OD450 ratio (fibrin over fibrinogen)” value was determined as 377.
On the same count and under the same terms, for B4 the value was 64.9.
For the molecule B5, the “OD450 ratio (fibrin over fibrinogen)” value came to 20.5.
The same measure, in the same setting: for B6 the value was 14.4.
